From patent publication US20220135638A1 (Takeda / Millennium, published 2022)
Square brackets hold non-standard residues; d marks the D form. Primed or numbered codes have the meaning given here. Side chains are listed from the residue outwards. Ends that are not written are not given here. * marks the point of attachment. C18 diacid = O=C(O)CCCCCCCCCCCCCCCCC(=O)*; C16 diacid = O=C(O)CCCCCCCCCCCCCCC(=O)*; Iva = CC[C@](C)(N)C(=O)O; Aib = CC(C)(N)C(=O)O

T1: human GLP-1R (Genebank Accession No. NM_002062) on hGLP-1R/CRE-luc/CHO-K1 cells (human), P43220
T1 chain: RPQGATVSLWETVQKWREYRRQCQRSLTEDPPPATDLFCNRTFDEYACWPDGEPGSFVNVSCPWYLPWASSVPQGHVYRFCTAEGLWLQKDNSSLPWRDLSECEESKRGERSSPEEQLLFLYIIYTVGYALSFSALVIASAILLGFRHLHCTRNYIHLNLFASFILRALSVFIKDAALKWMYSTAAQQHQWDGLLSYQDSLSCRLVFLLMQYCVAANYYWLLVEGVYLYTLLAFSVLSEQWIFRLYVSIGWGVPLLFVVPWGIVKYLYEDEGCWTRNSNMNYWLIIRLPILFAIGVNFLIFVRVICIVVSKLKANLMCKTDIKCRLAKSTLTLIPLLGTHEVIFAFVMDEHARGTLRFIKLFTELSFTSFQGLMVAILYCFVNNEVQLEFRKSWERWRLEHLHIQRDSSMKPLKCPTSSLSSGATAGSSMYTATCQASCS

T2: human GIPR (Genebank Accession No. U39231) on hGIPR/CRE-LUC/CHO-K1 cells (human), P48546
T2 chain: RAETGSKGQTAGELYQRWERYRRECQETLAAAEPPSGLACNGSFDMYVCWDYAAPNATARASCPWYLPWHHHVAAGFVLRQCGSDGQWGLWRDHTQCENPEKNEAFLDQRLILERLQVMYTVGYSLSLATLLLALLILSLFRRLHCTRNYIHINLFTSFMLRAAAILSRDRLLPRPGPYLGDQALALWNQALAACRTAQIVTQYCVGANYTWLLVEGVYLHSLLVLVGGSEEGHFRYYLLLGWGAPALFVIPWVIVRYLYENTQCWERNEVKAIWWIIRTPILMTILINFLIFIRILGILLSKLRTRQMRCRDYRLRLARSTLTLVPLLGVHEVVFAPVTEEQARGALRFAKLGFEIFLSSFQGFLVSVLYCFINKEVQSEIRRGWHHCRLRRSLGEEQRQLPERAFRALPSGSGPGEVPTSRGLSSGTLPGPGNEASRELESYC

B1: Compound No. 60 (peptide)
peptide: YXEGTFISDYSIALDRXHQXNFVNWXLAQRPSSGAPPPSX
modifications: MeTyr (N-methyltyrosine) at 1; Aib at 2, 17, 20; Iva at 26; Lys40(Oda-GlyGlyGlyGlyGly); synthesized on Sieber amide resin
B2: Compound No. 7 (peptide)
peptide: YXEGTVVSLYSIXLDKQAQXEFVKWLLKGGPSSGAPPPSX
modifications: Aib at 2, 13, 20; Lys40(Heda-Gly-Gly-Gly-Gly-); synthesized on Sieber amide resin

Experiments:
Assay in all cases: cell-based or functional assay
[1] = target: human GLP-1R (Genebank Accession No. NM_002062) on hGLP-1R/CRE-luc/CHO-K1 cells (human, UniProt P43220 24-463)
[2] = target: T1, human GLP-1R (Genebank Accession No. …)
[3] = target: T2, human GIPR (Genebank Accession No. …)

Binder	hGLP-1R (Reporter gene assay)(EC50) [1]	hGLP-1R (Reporter gene assay)(EC50) [2]	hGIPR (polyclonal) Reporter (EC50) [3]
B1	> 1000 nM	–	–
B2	> 1000 nM	–	–
Y[Aib]EGTFISDYSIALDR[Aib]HQ[Aib]NFVNW[Iva]LAQRPSSGAPPPSK([PEG(2)-C18 diacid]) (ends and bridges not checked) [Compound No. 42]	–	> 1000 nM	0.03 nM
Y[Aib]EGTFISDYSIALDR[Aib]HQ[Aib]NFVNW[Iva]LAQRPSSGAPPPSK([PEG(2)-C16 diacid]) (ends and bridges not checked) [Compound No. 46]	–	> 1000 nM	0.01 nM
